Experimental data as given in patent US20250289897A1 (Eli Lilly, published 2025).

Assays:
human LEPR-ECD-His = molecular target: T1, human LEPR-ECD-His (human, UniProt P48357 22-839); experiment: SPR (Biacore T200), antibody captured on Protein A/G chip, His-tagged LEPR-ECD as analyte, 1:1 fit; mean n=3, SD 2.2E-9
T1 sequence: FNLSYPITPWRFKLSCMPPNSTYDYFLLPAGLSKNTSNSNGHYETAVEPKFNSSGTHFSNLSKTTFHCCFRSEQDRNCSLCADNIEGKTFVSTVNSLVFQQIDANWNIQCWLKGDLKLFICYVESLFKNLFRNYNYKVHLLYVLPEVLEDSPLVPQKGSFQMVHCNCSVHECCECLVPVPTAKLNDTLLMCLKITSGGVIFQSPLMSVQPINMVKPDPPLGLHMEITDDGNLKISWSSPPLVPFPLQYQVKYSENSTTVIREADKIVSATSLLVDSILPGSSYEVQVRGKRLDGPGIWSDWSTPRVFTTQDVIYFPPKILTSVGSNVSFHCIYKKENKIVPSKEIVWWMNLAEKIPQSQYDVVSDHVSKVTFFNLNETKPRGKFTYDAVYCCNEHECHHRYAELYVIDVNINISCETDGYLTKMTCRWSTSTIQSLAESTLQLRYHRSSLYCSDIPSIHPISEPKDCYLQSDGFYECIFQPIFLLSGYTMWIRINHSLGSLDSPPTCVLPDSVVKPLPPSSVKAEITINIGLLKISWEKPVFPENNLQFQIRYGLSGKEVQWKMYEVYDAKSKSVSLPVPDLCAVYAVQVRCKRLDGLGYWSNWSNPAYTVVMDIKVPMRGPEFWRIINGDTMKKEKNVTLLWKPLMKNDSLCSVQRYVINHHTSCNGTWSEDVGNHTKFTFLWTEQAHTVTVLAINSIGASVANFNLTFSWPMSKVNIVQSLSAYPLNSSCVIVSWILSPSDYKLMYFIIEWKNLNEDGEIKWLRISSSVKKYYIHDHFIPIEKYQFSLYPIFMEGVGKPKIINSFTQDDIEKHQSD
Description: (§1) His-tagged ECDs were expressed and purified for each species and used for affinity analysis. A Protein A/G chip (Xantec, Cat #PAGHC200M) was utilized in this experiment with HBS-EP +0.01% BSA as running buffer. Antibodies were diluted to 1 μg/mL in running buffer and captured to a single flow cell on the chip surface. Each species of LEPR-ECD was diluted to 1000 nM in running buffer followed by 2-fold serial dilution. Each ligand concentration was injected over all flow cells at 100 L/min for 150 seconds followed by a 600 second dissociation phase. Regeneration was performed by injecting 10 mM glycine pH1.5 for 30 seconds at 10 μL/min. Data were analyzed in Biacore T200 Evaluation Software 3.1 by flow-cell 1 reference subtraction along with 0 nM blank subtraction. Data were fit globally using a “1:1 Binding” binding model to determine the on-rate (kₐ) and off-rate (kd) for each ligand. The affinity (KD) was calculated from the binding kinetics according to the relationship KD=kₐ/kd. Data reported as mean±standard deviation of experimental replicates.

canine LEPR-ECD-His = molecular target: T2, canine LEPR-ECD-His (canine); experiment: SPR (Biacore T200), antibody captured on Protein A/G chip, His-tagged LEPR-ECD as analyte, 1:1 fit; mean n=2, SD 1.9E-8
T2 chain: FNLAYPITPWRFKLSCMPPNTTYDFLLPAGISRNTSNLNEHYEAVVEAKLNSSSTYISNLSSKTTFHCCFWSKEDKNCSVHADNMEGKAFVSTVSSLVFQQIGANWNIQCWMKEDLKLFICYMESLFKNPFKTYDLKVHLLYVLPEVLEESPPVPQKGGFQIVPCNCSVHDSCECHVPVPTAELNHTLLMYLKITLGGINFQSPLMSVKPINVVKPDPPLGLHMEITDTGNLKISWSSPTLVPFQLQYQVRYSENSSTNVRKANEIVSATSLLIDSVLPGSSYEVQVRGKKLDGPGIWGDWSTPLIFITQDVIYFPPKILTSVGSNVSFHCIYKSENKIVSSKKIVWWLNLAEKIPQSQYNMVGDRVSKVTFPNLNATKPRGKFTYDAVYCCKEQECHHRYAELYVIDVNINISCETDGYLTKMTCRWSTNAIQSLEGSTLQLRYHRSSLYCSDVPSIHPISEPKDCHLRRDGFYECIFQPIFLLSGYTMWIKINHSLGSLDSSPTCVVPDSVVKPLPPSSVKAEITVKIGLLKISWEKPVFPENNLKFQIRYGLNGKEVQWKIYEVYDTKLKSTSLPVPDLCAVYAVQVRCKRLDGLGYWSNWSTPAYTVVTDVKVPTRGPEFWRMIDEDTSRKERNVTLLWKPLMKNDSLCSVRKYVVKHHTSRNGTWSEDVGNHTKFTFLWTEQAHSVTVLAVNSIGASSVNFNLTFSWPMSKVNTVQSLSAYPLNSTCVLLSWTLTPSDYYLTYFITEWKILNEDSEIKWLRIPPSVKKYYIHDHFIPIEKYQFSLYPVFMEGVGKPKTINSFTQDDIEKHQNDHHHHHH
Description: as §1

[1] = molecular target: T3, cynomolgus monkey LEPR, full length, on HEK293-STAT3Luc-cmLepR2 cells (Macaca fascicularis); experiment: flow cytometry on live HEK293-STAT3Luc-cmLepR2 cells, AF647 anti-human IgG; average of 4 runs, SD 1.0
T3 construct: whole, on cells; also called cyno-LEPR; Macaca fascicularis LEPR
Description: Cells were incubated in blocking buffer for 10 mins at room temperature. After one rinse with PBS, cells were transferred to U-bottom 96-well plate at 200 μL and 0.2˜0.26^e6 cells/well. […] Cells were then incubated with 30 μL/well of antibodies diluted in flow buffer at 1000 nM as high dose followed by 9-point dose response including 5-fold dilutions not including 0 (totaling 9 concentrations for each Antibody) for 30 minutes at 4° C. in dark.

Binder	Kd (human LEPR-ECD-His) [nM]	Kd (canine LEPR-ECD-His) [nM]	EC50 [1] [nM]
Antibody A (antibody, human IgG1, kappa, L234A L235A, IgG1 mAb) heavy: EVQLLESGGGLVQPGGSLRLSCAASGFTFSSFAMSWVRQAPGKGLEWVSAISGSGGSTYSADSVRGRFTISRDNSKNTLYLQMNSLRAEDTAVYYCAKDQGDWDFLFDYWGQGTLVTVSSASTKGPSVFPLAPSSKSTSGGTAALGCLVKDYFPEPVTVSWNSGALTSGVHTFPAVLQSSGLYSLSSVVTVPSSSLGTQTYICNVNHKPSNTKVDKRVEPKSCDKTHTCPPCPAPEAAGGPSVFLFPPKPKDTLYITREPEVTCVVVSVSHEDPEVKFNWYVDGVEVHNAKTKPREEQYNSTYRVVSVLTVLHQDWLNGKEYKCKVSNKALPAPIEKTISKAKGQPREPQVYTLPPSREEMTKNQVSLTCLVKGFYPSDIAVEWESNGQPENNYKTTPPVLDSDGSFFLYSKLTVDKSRWQQGNVFSCSVMHEALHNHYTQKSLSLSPGK light: DIQMTQSPSFLSASVGDRVTITCRASQGISSSLAWYQQKPGKAPKLLIYTASTLQSGVPSRFSGSGSGTEFTLTISSLQPEDFATYYCQQLIYYPFTFGQGTKVEIKRTVAAPSVFIFPPSDEQLKSGTASVVCLLNNFYPREAKVQWKVDNALQSGNSQESVTEQDSKDSTYSLSSTLTLSKADYEKHKVYACEVTHQGLSSPVTKSFNRGEC	20	–	–
Antibody B (antibody, human IgG1, kappa, L234A L235A, V domains shown) VH: EVQLLESGGGLVQPGGSLRLSCAASGFTFSSFAMSWVRQAPGKGLEWVSAISGSGGSTYSADSVRGRFTISRDNSKNTLYLQMNSLRAEDTAVYYCAKDQGDWDFLFDYWGQGTLVTVSS VL: DIQMTQSPSFLSASVGDRVTITCRVSQGISSSLAWYQQKPGKAPKLLIYTASTLQSGVPSRFSGSGSGTEFTLTISSLQPEDFATYYCQQLNYYPFTFGQGTKVEIKR	–	330	1.11
